Here are results for three molecules from publication PMC7641770, “Novel polyadenylylation-dependent neutralization mechanism of the HEPN/MNT toxin/antitoxin system” (Nucleic Acids Research, 2020).

The series “crystal structure” deals with the molecule itself. Description: crystal structure.
The target of series [1] is T1, MntA antitoxin (SO_3165) of Shewanella oneidensis, untagged (Shewanella oneidensis, UniProt Q8ECH7 1-139).
T1 construct: also called MNT antitoxin; native MntA
Description: pull-down. The settings on record: partners not purified.

Series [2] deals with the molecule itself. Description: crystal structure; co-expressed complex purified (Superdex 200, 20 mM Tris pH 8.0, 150 mM NaCl), sitting drop vapor diffusion at 16°C; (HepT)6-(MntA)2 hetero-octamer.
The target in series [3] is T1, MntA antitoxin (SO_3165) of Shewanella …. The series is described as above. The following applies: both partners purified.
For series [4], the target named is MntA D39E,D41E (SO_3165) of Shewanella oneidensis, untagged (Shewanella oneidensis, UniProt Q8ECH7 1-139, D39E | D41E). Briefly: crystal structure. The settings on record: both partners purified.

B1: HepT toxin (SO_3166) of Shewanella oneidensis, C-terminal His6 tag, polyadenylylated at Y104 by co-produced MntA (natural protein, UniProt Q8ECH6 1-133, looked up)
chain: MNDIIINKIATIKRCIKRIQQVYGDGSQFKQDFTLQDSVILNLQRCCEACIDIANHINRQQQLGIPQSSRDSFTLLAQNNLITQPLSDNLKKMVGLRNIAVHDYQELNLDIVVHVVQHHLEDFEQFIDVIKAE
notes: also called HEPN toxin; modified HepT
With B1, the binding result (in the series “crystal structure”; in series [1]) was “binds” each time.

B2: HepT Y104A (SO_3166) of Shewanella oneidensis, C-terminal His6 tag (natural protein, UniProt Q8ECH6 1-133, looked up)
chain: MNDIIINKIATIKRCIKRIQQVYGDGSQFKQDFTLQDSVILNLQRCCEACIDIANHINRQQQLGIPQSSRDSFTLLAQNNLITQPLSDNLKKMVGLRNIAVHDAQELNLDIVVHVVQHHLEDFEQFIDVIKAE
notes: also called unmodified HepT^Y104A
In the case of B2, the binding result in series [2] and in series [3] was “binds” throughout.

B3: HepT toxin (SO_3166) of Shewanella oneidensis, C-terminal His6 tag, unmodified (co-produced with an inactive MntA variant) (natural protein, UniProt Q8ECH6 1-133, looked up)
chain: MNDIIINKIATIKRCIKRIQQVYGDGSQFKQDFTLQDSVILNLQRCCEACIDIANHINRQQQLGIPQSSRDSFTLLAQNNLITQPLSDNLKKMVGLRNIAVHDYQELNLDIVVHVVQHHLEDFEQFIDVIKAE
notes: also called unmodified HepT
As to B3, the binding result in series [4] is reported as “binds”.
